In patent publication US9844589:

What was measured:
[1] = target: CON6 gp140CF (artificial HIV-1 group M consensus)
[2] = target: CON6 gp120 (artificial HIV-1 group M consensus); assay: ELISA endpoint titer (3 fold over background) on CON6 gp120

Row | Substance | concentration at endpoint titer [1] | concentration at endpoint titer [2]
1 | 2F5 (antibody) | 0.016 µg/mL | 
2 | 447 (antibody) |  | < 0.003 µg/mL
3 | A32 (antibody) |  | < 0.125 µg/mL
4 | IgG1b12 (antibody) |  | < 0.002 µg/mL
